Data on 16 molecules can be found in US20090202526A1 (RINAT NEUROSCIENCE, published 2009).

The term koff denotes the first-order rate constant of dissociation. A high value points to fast dissociation. As usually defined, the Kd is the equilibrium constant for the complex coming apart. As usually defined, the kon is the second-order rate constant of association.

In test [1] the target is T1, Human trkC-Fc fusion protein (human, UniProt Q16288 32-429).
T1 construct: Immobilised on CM5 chip for BIAcore; also called htrkC; not shown: Fc part not described
Kind of test: BIAcore SPR, Fab over immobilised human trkC-Fc. The protocol:
(§1) Affinities of anti-trkC Fabs and monoclonal antibodies were determined using the BIAcore 3000™ surface plasmon resonance (SPR) system (BIAcore, INC, Piscaway N.J.). CM5 chips were activated with N-ethyl-N′-(3-dimethylaminopropyl)-carbodiimide hydrochloride (EDC) and N-hydroxysuccinimide (NHS) according to the supplier's instructions. Human or rat trkC-Fc fusion protein was diluted into 10 mM sodium acetate pH 5.0 and injected over the activated chip at a concentration of 0.005 mg/mL. Using variable flow time across the individual chip channels, two ranges of antigen density were achieved: 200-400 response units (RU) for detailed kinetic studies and 500-1000 RU for screening assays. The chip was blocked with ethanolamine. […] HBS-EP buffer (0.01M HEPES, pH 7.4, 0.15 NaCl, 3 mM EDTA, 0.005% Surfactant P20) was used as running buffer for all the BIAcore assays. […] The concentrations of the Fab proteins are determined by ELISA and/or SDS-PAGE electrophoresis using a Fab of known concentration (as determined by amino acid analysis) as a standard. Kinetic association rates (kₒₙ) and dissociation rates (koff) are obtained simultaneously by fitting the data to a 1:1 Langmuir binding model (Karlsson, R. Roos, H. Fagerstam, L. Petersson, B. (1994). Methods Enzymology 6. 99-110) using the BlAevaluation program. Equilibrium dissociation constant (KD) values are calculated as koff/kₒₙ.
We prepared antibody clones bearing the CDR and/or framework region substitution mutations shown in Table 1 and determine KD and other kinetic parameters using BIAcore analysis as described herein.

Test [2] deals with T1, Human trkC-Fc fusion protein. Put plainly: BIAcore SPR, human trkC-Fc on chip; KD calculated from koff with 2256 kon 5E5 1/Ms.
For test [3], the target named is T2, Rat trkC-Fc fusion protein (rat, UniProt Q03351 32-429).
T2 construct: Immobilised on CM5 chip for BIAcore; not shown: Fc part not described
Put plainly: BIAcore SPR, Fab over immobilised rat trkC-Fc. The protocol: as §1

B1: Fab clone 129(T8) (Fab, V domains shown)
VH: QVQLVQSGAEVKKPGASVKVSCKASGYTFTSYWMHWVRQAPGQGLEWMGEIYPSNGRTNYNEKFKSRATMTGDKSTSTVYMELSSLRSEDTAVYYCARKYYYGNSRRSWYFDVWGQGTTVTVS
VL: DIQMTQSPSSLSASVGDRVTITCRASESVDNYGISFMNWYQQKPGKAPKLLIYAASNQGSGVPSRFSGSGSGTDFTFTISSLQPEDIATYYCQQSKTVPRTFGQGTKLEIKR
Regarding B1, the off-rate constant (koff) in test [1] worked out at 0.0016 s⁻¹. For the same molecule, the Kd in test [2] was 3 nM.

B2: Fab clone 129(T8)(H8xE10)(10B)(C7) (Fab, V domains shown)
VH: QVQLVQSGAEVKKPGASVKVSCKASGYTFTSYRIHWVRQAPGQGLEWMGEIYPSNTRTNYNEKFKSRVTMTRDTSTSTVYMELSSLRSEDTAVYYCARKYYYGNTRRSWYFDVWGQGTTVTVS
VL: DIQMTQSPSSLSASVGDRVTITCRASESIDNYGISFLAWYQQKPGKAPKLLIYAASNRGSGVPSRFSGSGSGTDFTFTISSLQPEDIATYYCQQSKTVPRTFGQGTKLEIKR
In test [1], B2 showed a Kd of 1.1 nM, an off-rate (koff) of 0.00047 s⁻¹ and a kon of 420000 M⁻¹ s⁻¹. For the same molecule, in test [3], the Kd is 39 nM, the koff turned out to be 0.03 s⁻¹ and the kon stood at 780000 M⁻¹ s⁻¹.

B3: Fab clone 129(C28) (Fab, V domains shown)
VH: QVQLVQSGAEVKKPGASVKVSCKASGYTFTSYWMHWVRQAPGQGLEWMGEIYPSNGRTNYNEKFKSRATMTGDTSTSTVYMQLSSLRSEDTAVYYCARKYYYGNSQRSWYFDVWGQGTTVTVS
VL: DIQMTQSPSSLSASVGDRVTITCRASESVDNYGISFMNWYQQKPGQAPKLLIYAASNQGSGVPSRFSGSGSGTDFTFTISSLQPEDIATYYCQQSKTVPRTFGQGTKLEIKR
Turning to B3, in test [1], the koff amounted to 0.0019 s⁻¹. For the same molecule, in test [2], the Kd is 3.6 nM.

B4: Fab clone 129(T8)(E12) (Fab, V domains shown)
VH: QVQLVQSGAEVKKPGASVKVSCKASGYTFTSYWLHWVRQAPGQGLEWMGEIYPSNSRTNYNEKFKSRATMTGDKSTSTVYMELSSLRSEDTAVYYCARKYYYGNSRRSWYFDVWGQGTTVTVS
VL: DIQMTQSPSSLSASVGDRVTITCRASESVDSYGISFMNWYQQKPGKAPKLLIYAASNLGSGVPSRFSGSGSGTDFTFTISSLQPEDIATYYCQQSKTVPRTFGQGTKLEIKR
In turn, B4 returned a koff in test [1] of 0.0009 s⁻¹. For the same molecule, the dissociation constant Kd in test [2] was 1.8 nM.

B5: Fab clone 129(C2) (Fab, V domains shown)
VH: QVQLVQSGAEVKKPGASVKVSCKASGYTFTSYWMHWVRQAPGQGLEWMGEIYPSNGRTNYNEKFKSRVTMTGDTSTSTVYMQLSSLRSEDTAVYYCARKYYYGNSKRSWYFDVWGQGTTVTVS
VL: DIQMTQSPSSLSASVGDRVTITCRASESVDNYGISFMNWYQQKPGQPPKLLIYAASNQGSGVPSRFSGTGSGTDFTFTISSLQPEDIATYYCQQSKEVPRTFGQGTKLEIKR
The molecule B5 showed a koff in test [1] of 0.0025 s⁻¹. Besides, the Kd in test [2] was 4.7 nM.

B6: Fab clone 129(T8)(H9) (Fab, V domains shown)
VH: QVQLVQSGAEVKKPGASVKVSCKASGYTFTSYWRHWVRQAPGQGLEWMGEIYPSNGRTNYNEKFKSRATMTGDKSTSTVYMELSSLRSEDTAVYYCARKYYYGNSRRSWYFDVWGQGTTVTVS
VL: DIQMTQSPSSLSASVGDRVTITCRASESVDNYGISFMNWYQQKPGKAPKLLIYAASNRGSGVPSRFSGSGSGTDFTFTISSLQPEDIATYYCQQSKTVPRTFGQGTKLEIKR
For the molecule B6, the koff in test [1] came to 0.0015 s⁻¹. Moreover, the Kd in test [2] is 3 nM.

B7: Fab clone 129(C14) (Fab, V domains shown)
VH: QVQLVQSGAEVKKPGASVKVSCKASGYTFTSYWMHWVRQAPGQGLEWMGEIYPSNGRTNYNEKFKSRVTMTRDKSTSTVYMHLSSLRSEDTAVYYCARKYYYGNSRRSWYFDVWGQGTTVTVS
VL: DIQMTQSPSSLSASVGDRVTITCRASESVDNYGISFMNWYQQKPGQAPKLLIYAASNQGSGVPSRFSGSGSGTDFTFTISSLQPEDIATYYCQQSKEVPRTFGQGTKLEIKR
In turn, B7 gave a koff in test [1] of 0.0017 s⁻¹. Also, in test [2], the Kd is 3.2 nM.

B8: Fab clone 129(C16) (Fab, V domains shown)
VH: QVQLVQSGAEVKKPGASVKVSCKASGYTFTSYWMHWVRQAPGQGLEWMGEIYPSNGRTNYNEKFKSRVTMTLDTSTSTVYMQLSSLRSEDTAVYYCARKYYYGNSKRSWYFDVWGQGTTVTVS
VL: DIQMTQSPSSLSASVGDRVTITCRASESVDNYGISFMNWYQQKPGKPPKLLMYAASNQGSGVPSRFSGSGSGTDFTFTISSLQPEDIATYYCQQSKEVPRTFGQGTKLEIKR
B8 displayed a koff in test [1] of 0.0025 s⁻¹. For the same molecule, the Kd in test [2] is 4.7 nM.

B9: Fab clone 129(T8)(E10) (Fab, V domains shown)
VH: QVQLVQSGAEVKKPGASVKVSCKASGYTFTSYRLHWVRQAPGQGLEWMGEIYPSNGRTNYNEKFESRATMTGDKSTSTVYMELSSLRSEDTAVYYCARKYYYGNSRRSWYFDVWGQGTTVTVS
VL: DIQMTQSPSSLSASVGDRVTITCRASESIDNYGISFLAWYQQKPGKAPKLLIYAASNRGSGVPSRFSGSGSGTDFTFTISSLQPEDIATYYCQQSKTVPRTFGQGTKLEIKR
notes: Light chain changes are the same as in A5
With B9, the koff in test [1] was determined as 0.0016 s⁻¹. Also, the Kd in test [2] was 3.2 nM.

B10: Fab clone 129(T8)(H8xE10)(9A) (Fab, V domains shown)
VH: QVQLVQSGAEVKKPGASVKVSCKASGYTFTSYRIHWVRQAPGQGLEWMGEIYPSNSRTNYNEKFKSRATMTRDKSTSTVYMELSSLRSEDTAVYYCARKYYYGNSRRSWYFDVWGQGTTVTVS
VL: DIQMTQSPSSLSASVGDRVTITCRASESIDNYGISFLAWYQQKPGKAPKLLIYAASNRGSGVPSRFSGSGSGTDFTFTISSLQPEDIATYYCQQSKTVPRTFGQGTKLEIKR
The molecule B10 displayed a koff in test [1] of 0.0003 s⁻¹. The Kd in test [2] is 0.6 nM.

B11: Fab clone 129(T26) (Fab, V domains shown)
VH: QVQLVQSGAEVKKPGASVKVSCKASGYTFTSYWMHWVRQAPGQGLEWMGEIYPSNGRTNYNEKFKSRVTMTLDKSTSTVYMQLSSLRSEDTAVYYCARKYYYGNSRRSWYFDVWGQGTTVTVS
VL: DIQMTQSPSSLSASVGDRVTITCRASESVDNYGISFMNWYQQKPGKPPKLLIYAASNQGSGVPSRFSGSGSGTDFTFTISSLQPEDIATYYCQQSKAVPRTFGQGTKLEIKR
B11 had a koff in test [1] of 0.0012 s⁻¹. Further, in test [2], the dissociation constant (Kd) is 2.3 nM.

B12: Fab clone 129(C36) (Fab, V domains shown)
VH: QVQLVQSGAEVKKPGASVKVSCKASGYTFTSYWMHWVRQAPGQGLEWMGEIYPSNGRTNYNEKFKSRVTMTLDKSTSTVYMQLSSLRSEDTAVYYCARKYYYGNSRRSWYFDVWGQGTTVTVS
VL: DIQMTQSPSSLSASVGDRVTITCRASESVDNYGISFMNWYQQKPGKPPKLLIYAASNQGSGVPSRFSGSGSGTDFTFTISSLQPEDIATYYCQQSKAVPRTFGQGTKLEIKR
Regarding B12, the koff in test [1] was determined as 0.002 s⁻¹. Further, the Kd in test [2] is 3.8 nM.

B13: Fab clone 129(T6) (Fab, V domains shown)
VH: QVQLVQSGAEVKKPGASVKVSCKASGYTFTSYWMHWVRQAPGQGLEWMGEIYPSNGRTNYNEKFKSRVTMTGDTSTSTVYMQLSSLRSEDTAVYYCARKYYYGNSKRSWYFDVWGQGTTVTVS
VL: DIQMTQSPSSLSASVGDRVTITCRASESVDNYGISFMNWYQQKPGQAPKLLIYAASNQGSGVPSRFSGSGSGTDFTFTISSLQPEDIATYYCQQSKEVPRTFGQGTKLEIKR
In the case of B13, the koff in test [1] was 0.0034 s⁻¹. In test [2], the Kd is 6.4 nM.

B14: Fab clone 129(T34) (Fab, V domains shown)
VH: QVQLVQSGAEVKKPGASVKVSCKASGYTFTSYWMHWVRQAPGQGLEWMGEIYPSNGRTNYNEKFKSRVTMTRDTSTSTVYMQLSSLRSEDTAVYYCARKYYYGNSRRSWYFDVWGQGTTVTVS
VL: DIQMTQSPSSLSASVGDRVTITCRASESVDNYGISFMNWYQQKPGQPPKLLIYAASNQGSGVPSRFSGSGSGTDFTFTISSLQPEDIATYYCQQSKTVPRTFGQGTKLEIKR
Consider B14, for which the koff in test [1] came out at 0.0012 s⁻¹. Further, in test [2], the Kd was 2.3 nM.

B15: Fab clone 129(T8)(H8) (Fab, V domains shown)
VH: QVQLVQSGAEVKKPGASVKVSCKASGYTFTSYRIHWVRQAPGQGLEWMGEIYPSNSRTNYNEKFKSRATMTGDKSTSTVYMELSSLRSEDTAVYYCARKYYYGNSRRSWYFDVWGQGTTVTVS
VL: DIQMTQSPSSLSASVGDRVTITCRASESVDNYGISFMTWYQQKPGKAPKLLIYAASNLGSGVPSRFSGSGSGTDFTFTISSLQPEDIATYYCQQSKTVPRTFGQGTKLEIKR
In the case of B15, the off-rate (koff) in test [1] worked out at 0.0006 s⁻¹. Also, the Kd in test [2] is 1.2 nM.

B16: Fab clone 129(C26) (Fab, V domains shown)
VH: QVQLVQSGAEVKKPGASVKVSCKASGYTFTSYWMHWVRQAPGQGLEWMGEIYPSNGRTNYNEKFKSRVTMTGDKSTSTVYMELSSLRSEDTAVYYCARKYYYGNSSRSWYFDVWGQGTTVTVS
VL: DIQMTQSPSSLSASVGDRVTITCRASESVDNYGISFMNWYQQKPGQAPKLLIYAASNQGSGVPSRFSGSGSGTDFTFTISSLQPEDIATYYCQQSKSVPRTFGQGTKLEIKR
Consider B16, for which the koff in test [1] is 0.007 s⁻¹. The Kd in test [2] was 13.2 nM.
